Experimental data as given in publication PMC9780825 (2022).
No end group written: not given here.

Assays:
[1] = biological target: T1, Kv1.3 (mKate2-tagged, K-ΔKv1.3) 53-C-terminus (deletion M1-D52) (Homo sapiens, UniProt P22001); experiment: fluorescent competitive binding assay (confocal, HEK293 cells)
[2] = biological target: T1, Kv1.3 (mKate2-tagged, K-ΔKv1.3) …; experiment: confocal fluorescence binding on HEK293 cells
[3] = biological target: Kv1.3 (mKate2-tagged, K-Kv1.3) (Homo sapiens, UniProt P22001); experiment: confocal fluorescence binding on HEK293 cells
Chain of Kv1.3 (mKate2-tagged, K-Kv1.3) (P22001 whole entry): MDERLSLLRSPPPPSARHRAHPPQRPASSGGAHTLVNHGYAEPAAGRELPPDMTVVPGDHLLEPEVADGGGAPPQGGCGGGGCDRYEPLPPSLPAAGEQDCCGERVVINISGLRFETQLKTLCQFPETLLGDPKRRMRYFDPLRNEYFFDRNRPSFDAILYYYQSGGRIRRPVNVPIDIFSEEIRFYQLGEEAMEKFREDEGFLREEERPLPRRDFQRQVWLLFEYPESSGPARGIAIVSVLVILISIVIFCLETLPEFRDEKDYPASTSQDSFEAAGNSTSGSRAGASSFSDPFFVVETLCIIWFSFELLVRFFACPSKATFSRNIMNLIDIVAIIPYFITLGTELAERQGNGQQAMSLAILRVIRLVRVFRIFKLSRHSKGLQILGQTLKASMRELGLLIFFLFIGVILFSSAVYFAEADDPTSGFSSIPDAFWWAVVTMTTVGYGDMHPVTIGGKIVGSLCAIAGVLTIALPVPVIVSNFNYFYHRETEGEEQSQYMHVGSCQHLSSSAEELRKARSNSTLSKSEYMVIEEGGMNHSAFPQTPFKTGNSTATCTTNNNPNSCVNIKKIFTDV

T1 sequence (P22001 53-575, stated change not applied): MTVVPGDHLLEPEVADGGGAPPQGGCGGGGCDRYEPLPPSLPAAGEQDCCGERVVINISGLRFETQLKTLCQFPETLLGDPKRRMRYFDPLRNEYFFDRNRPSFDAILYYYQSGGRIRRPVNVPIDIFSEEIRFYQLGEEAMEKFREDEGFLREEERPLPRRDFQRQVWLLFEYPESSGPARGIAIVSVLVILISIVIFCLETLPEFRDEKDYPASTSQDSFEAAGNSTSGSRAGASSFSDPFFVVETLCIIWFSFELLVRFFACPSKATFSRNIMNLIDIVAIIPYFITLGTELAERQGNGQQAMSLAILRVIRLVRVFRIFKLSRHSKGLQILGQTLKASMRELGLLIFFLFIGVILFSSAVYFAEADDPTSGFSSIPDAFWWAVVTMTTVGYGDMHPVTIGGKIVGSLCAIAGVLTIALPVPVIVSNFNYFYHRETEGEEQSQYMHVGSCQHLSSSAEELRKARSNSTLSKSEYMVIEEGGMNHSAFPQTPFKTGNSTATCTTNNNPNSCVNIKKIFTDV

Binder	Ki [1]	Kd [2]	Kd [3]
GVEINVKCSGSPQCLKPCKDAGMRFGKCMNRKCHCTPK (ends and bridges not checked; cysteine pairing not given here) [Kaliotoxin 1 (KTx1)]	4 nM		
GVPINVSCTGSPQCIKPCKDAGMRFGKCMNRKCHCTPK (ends and bridges not checked; cysteine pairing not given here) [Agitoxin 2 (AgTx2)]	1.1 nM		
TVIDVKCTSPKQCLPPCKAQFGIRAGAKCMNGKCKCYPH (ends and bridges not checked; cysteine pairing not given here) [Hongotoxin 1 (HgTx1)]	0.2 nM		
Atto488-TVIDVKCTSPKQCLPPCKAQFGIRAGAKCMNGKCKCYPH (ends and bridges not checked) [Hongotoxin 1 (Atto488-labeled, A-HgTx)]		0.48 nM	0.3 nM
